Patent US20210246178A1 (DEUTSCHES KREBSFORSCHUNGSZENTRUM STIFTUNG DES FFENTLICHEN …, published 2021)

Target: the molecule itself
Assay: X-ray crystal structure, 1.53 Å

B1: MSBI1.176 Rep protein WH1 domain (residues 1-135) (other)
chain: MSDLIVKDNALMNASYNLALVEQRLILLAIIEARETGKGINANDPLTVHASSYINQFNVERHTAYQALKDACKDLFARQFSYQEKRERGRINITSRWVSQIGYMDDTATVEIIFAPAVVPLITRLEEQFTQYDIE
notes: This entry is one protomer; Two protomers (A and B) form the WH1 homodimer in the crystal, so the self-pair is written as m1 with m1; The construct of residues 1-135 was expressed in E. coli as a His-tagged fusion in modified pMal-c2X and cleaved with HRV-3C protease; also called MSBI1.176 WH1; MSBI1 WH1
Question: Does B1 bind?
Answer: Result: binds
